# Laboratory results: doi:10.1101/2025.02.21.639368
# Target: H1 NC99 HA trimer (full-length trimeric ectodomain of H1N1 A/New Caledonia/20/1999 hemagglutinin) (influenza A virus H1N1 A/New Caledonia/20/1999)
# Test: cryo-EM structure; HA NC99 and Fab mixed at a molar ratio of 1:1.5 (HA protomer:Fab), 5 min at room temperature; graphene grids, 0.01 mg/ml
substance,measurement,value
H1 NC99 HA trimer (full-length trimeric ectodomain of H1N1 A/New Caledonia/20/1999 hemagglutinin) (natural protein),stoichiometry N,3
